From patent US20080299140A1, “Immunogenic Composition and Peptide Sequences for Prevention and Treatment of an Hsv Condition” (priority 2002, published 2008)

What was measured:
[1] = biological target: HLA-DR(α1*0101,α1*1501) (human); assay: reference IC50 of the tracer peptide in the HLA class II competition assay
[2] = biological target: HLA-DR(α1*0101,α1*1101) (human); assay: as above
[3] = biological target: HLA-DR(α1*0101,α1*1501) (human); assay: competition assay on purified HLA; tracer A3 (152-166)
[4] = biological target: HLA-DP(α1*0101,α1*0401) (human); assay: competition assay on purified HLA; tracer bOxy 271-287
[5] = biological target: DP (α1*0101, α1*0402) (human); assay: as above
[6] = biological target: HLA-DR(α1*0101,α1*0701) (human); assay: competition assay on purified HLA; tracer YKL
[7] = biological target: HLA-DR(α1*0101,α1*1101) (human); assay: competition assay on purified HLA; tracer HA (307-319)
[8] = biological target: HLA-DR(α1*0101,α1*0401) (human); assay: as above
[9] = biological target: HLA-DR(α1*0101,α5*0101) (human); assay: as above
[10] = biological target: HLA-DR(α1*0101,α1*0301) (human); assay: competition assay on purified HLA; tracer MT (2-16)
[11] = biological target: HLA-DR(α1*0101,α4*0101) (human); assay: competition assay on purified HLA; tracer E2/E168
[12] = biological target: HLA-DR(α1*0101,α1*1301) (human); assay: competition assay on purified HLA; tracer B1 (21-36)
[13] = biological target: DR7=HLA-DR(α1*0101,α1*0701) (human); assay: HLA class II competition binding assay, biotinylated tracer peptide
[14] = biological target: DP402=HLA-DR(α1*0101,α1*0402) (human); assay: as above
[15] = biological target: DRB5=HLA-DR(α1*0101,α5*0101) (human); assay: as above
[16] = biological target: DRB3=HLA-DR(α1*0101,α3*0101) (human); assay: as above
[17] = biological target: DP401=HLA-DP(α1*0101,α1*0401) (human); assay: as above
[18] = biological target: DR3=HLA-DR(α1*0101,α1*0301) (human); assay: as above
[19] = biological target: DR13=HLA-DR(α1*0101,α1*1301) (human); assay: as above
[20] = biological target: DR4=HLA-DR(α1*0101,α1*0401) (human); assay: as above
[21] = biological target: DR11=HLA-DR(α1*0101,α1*1101) (human); assay: as above
[22] = biological target: DRB4=HLA-DR(α1*0101,α4*0101) (human); assay: as above
[23] = biological target: DR15=HLA-DR(α1*0101,α1*1501) (human); assay: as above
[24] = biological target: HLA-DR(α1*0101,α3*0101) (human); assay: competition assay on purified HLA; tracer LOL (191-210)
[25] = biological target: HLA-DR(α1*0101,α1*0101) (human); assay: competition assay on purified HLA; tracer HA (307-319)
[26] = biological target: DR1=HLA-DR(α1*0101,α1*0101) (human); assay: HLA class II competition binding assay, biotinylated tracer peptide

Substance | IC50 [3] [nM] | IC50 [4] [nM] | IC50 [5] [nM] | IC50 [6] [nM] | IC50 [7] [nM] | IC50 [8] [nM] | IC50 [9] [nM] | IC50 [10] [nM] | IC50 [11] [nM] | IC50 [12] [nM] | IC50 [13] [nM] | IC50 [14] [nM] | IC50 [15] [nM] | IC50 [16] [nM] | IC50 [18] [nM] | IC50 [20] [nM] | IC50 [21] [nM] | IC50 [22] [nM] | IC50 [23] [nM] | IC50 [24] [nM] | other results
A3 (152-166) (peptide) | – | – | – | – | – | – | – | – | – | – | – | – | – | – | – | – | – | – | – | – | IC50 [1]: 13 nM
HA (307-319) (peptide) | – | – | – | – | – | – | – | – | – | – | – | – | – | – | – | – | – | – | – | – | IC50 [2]: 52 nM
HSV1 29 (gD1-23) (peptide) | 24500 | 17600 | 1630 | 894 | 5250 | 82 | 8 | 120 | 52500 | > 100000 | 894 | 1630 | 8 | 1400 | 120 | 82 | 5250 | 52500 | 24500 | 1400 | IC50 [17]: 17600 nM; IC50 [19]: > 100000 nM
HSV1 33 (gD121-152) (peptide) | 2 | 83 | 65 | 19 | 289 | 8 | 134 | 66 | 319 | – | 19 | 65 | 134 | 226 | 66 | 6 | 289 | 319 | 2 | 226 | IC50 [25]: 53 nM; IC50 [26]: 53 nM; IC50 [17]: 83 nM
HSV1 35 (gD287-317) (peptide) | 6790 | > 100000 | > 100000 | – | 25000 | 600 | 4500 | 19500 | 3260 | > 100000 | – | > 100000 | 4500 | 5000 | 19500 | 600 | 25000 | 3260 | 6790 | 5000 | IC50 [25]: 3160 nM; IC50 [26]: 3160 nM; IC50 [17]: > 100000 nM; IC50 [19]: > 100000 nM
HSV1 37 (gD200-234) (peptide) | 13 | – | 167 | 200 | 44 | 40 | 68 | 307 | 3740 | 2050 | 200 | 167 | 68 | 41 | 307 | 40 | 44 | 3740 | 13 | 41 | IC50 [25]: 4 nM; IC50 [26]: 4 nM; IC50 [19]: 2050 nM
HSV1 39 (gD332-358) (peptide) | 950 | – | > 100000 | 274 | 5 | 5870 | 31 | – | 703 | – | 274 | > 100000 | 31 | 2310 | – | 5870 | 5 | 703 | 950 | 2310 | –
